Target: Dicer (endogenous human Dicer) (human (endogenous in HeLa and HEK 293T)) (UniProt Q9UPY3)
Test: proximity ligation

Sequence of UniProt Q9UPY3 (Q9UPY3 whole entry): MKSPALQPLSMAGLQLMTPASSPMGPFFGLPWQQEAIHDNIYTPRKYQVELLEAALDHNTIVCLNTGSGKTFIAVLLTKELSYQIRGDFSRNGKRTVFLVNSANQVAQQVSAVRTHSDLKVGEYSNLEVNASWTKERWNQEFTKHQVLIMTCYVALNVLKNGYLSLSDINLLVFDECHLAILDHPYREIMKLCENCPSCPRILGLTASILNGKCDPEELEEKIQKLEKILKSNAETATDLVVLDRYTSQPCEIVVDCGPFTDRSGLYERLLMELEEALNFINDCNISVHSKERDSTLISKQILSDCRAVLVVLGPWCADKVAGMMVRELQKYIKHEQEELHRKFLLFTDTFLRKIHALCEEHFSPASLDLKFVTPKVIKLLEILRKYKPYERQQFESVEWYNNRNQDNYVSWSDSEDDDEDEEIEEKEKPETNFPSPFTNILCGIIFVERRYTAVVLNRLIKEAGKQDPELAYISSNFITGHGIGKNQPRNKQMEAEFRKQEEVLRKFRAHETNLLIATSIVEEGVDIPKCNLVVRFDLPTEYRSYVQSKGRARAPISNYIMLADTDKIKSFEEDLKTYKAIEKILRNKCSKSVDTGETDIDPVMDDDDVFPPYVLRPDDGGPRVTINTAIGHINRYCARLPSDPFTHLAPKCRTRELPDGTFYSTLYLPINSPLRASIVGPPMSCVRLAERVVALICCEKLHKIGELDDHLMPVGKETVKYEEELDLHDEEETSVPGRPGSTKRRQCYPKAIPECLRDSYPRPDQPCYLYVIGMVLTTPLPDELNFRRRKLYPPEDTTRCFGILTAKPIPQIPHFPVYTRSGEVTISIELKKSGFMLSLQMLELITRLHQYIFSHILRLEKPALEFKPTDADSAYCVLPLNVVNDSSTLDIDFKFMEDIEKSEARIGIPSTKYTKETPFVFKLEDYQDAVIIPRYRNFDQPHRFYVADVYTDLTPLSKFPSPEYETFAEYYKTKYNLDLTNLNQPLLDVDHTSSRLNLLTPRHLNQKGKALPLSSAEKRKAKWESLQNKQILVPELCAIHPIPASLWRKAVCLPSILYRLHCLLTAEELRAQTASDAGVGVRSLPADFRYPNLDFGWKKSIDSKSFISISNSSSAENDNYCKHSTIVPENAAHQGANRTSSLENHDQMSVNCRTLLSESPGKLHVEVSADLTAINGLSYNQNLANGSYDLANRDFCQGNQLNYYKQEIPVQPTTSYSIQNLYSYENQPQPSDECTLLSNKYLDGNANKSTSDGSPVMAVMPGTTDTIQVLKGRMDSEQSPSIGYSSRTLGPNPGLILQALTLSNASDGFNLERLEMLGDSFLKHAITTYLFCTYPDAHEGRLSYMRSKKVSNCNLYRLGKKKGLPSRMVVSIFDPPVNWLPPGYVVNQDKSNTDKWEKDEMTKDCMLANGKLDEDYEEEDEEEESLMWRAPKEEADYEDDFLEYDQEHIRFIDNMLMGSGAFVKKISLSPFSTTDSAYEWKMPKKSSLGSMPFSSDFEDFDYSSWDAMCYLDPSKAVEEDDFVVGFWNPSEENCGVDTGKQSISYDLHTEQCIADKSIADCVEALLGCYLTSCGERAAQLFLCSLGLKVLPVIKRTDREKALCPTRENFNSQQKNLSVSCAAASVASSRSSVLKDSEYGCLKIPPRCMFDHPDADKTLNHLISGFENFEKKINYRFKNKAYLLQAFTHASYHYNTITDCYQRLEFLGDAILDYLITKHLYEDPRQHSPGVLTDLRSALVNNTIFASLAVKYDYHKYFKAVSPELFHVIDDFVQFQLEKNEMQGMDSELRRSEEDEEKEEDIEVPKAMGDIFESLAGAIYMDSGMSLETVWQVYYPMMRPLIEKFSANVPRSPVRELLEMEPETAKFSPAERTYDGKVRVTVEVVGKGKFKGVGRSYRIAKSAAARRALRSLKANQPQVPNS

Flag-Gag (pCI-Neo-Flag-Gag) (natural protein)
PLA proximity events in a cell (highest) (proximity events per cell): < 36
